# Test results reported in PMC4785404, “The three-dimensional structure of Clostridium absonum 7α-hydroxysteroid dehydrogenase: new insights into the conserved arginines for NADP(H) recognition” (Scientific Reports, 2016).
# Several values for one entry are separate records, joined by “and”; a condition that tells them apart may be missing. Equal values may be shown once.
# Assays:
# [1] = system: NC(=O)c1ccc[n+]([C@@H]2O[C@H](COP(=O)(O)OP(=O)(O)OC[C@H]3O[C@@H](n4cnc5c(N)ncnc54)[C@H](OP(=O)(O)O)[C@@H]3O)[C@@H](O)[C@H]2O)c1; assay: purified protein; settings: assay conditions by cited earlier methods; co-substrate not given; SD in parentheses; crystal structure of complex with TCDCA also solved; varied: cofactor
# [2] = molecular target: the molecule itself; assay: SEC; purified CA 7α-HSDH in aqueous solution; standard proteins of 669, 440, 158, 75, 44, 29 and 13.7 kDa; the dimer fraction of the first run was collected and run again; the tetramer fractions were checked by MS
Molecule,Km [1],kcat [1] [s⁻¹],kcat/Km [1] [M⁻¹ s⁻¹],stoichiometry N [2]
CA 7α-HSDH (Clostridium sardiniense),0.34 (0.01) mM,13.8,40100,–
"7α-hydroxysteroid dehydrogenase from Clostridium absonum (enzyme, UniProt G9FRD7 1-262, looked up, 7α-hydroxysteroid dehydrogenase (CA 7α-HSDH), Clostridium absonum; the gene was cloned into pGEX-6p-1; Crystallised with NADP+ and TCDCA; also called CA 7α-HSDH; 7α-HSDH; source: E. coli BL21 (DE3), GST-fused from pGEX-6p-1, purified (monoQ, superdex 75)) MKRLEGKVAIVTSSTRGIGRASAEALAKEGALVYLAARSEELANEVIADIKKQGGVAKFVYFNAREEETYTSMVEKVAEAEGRIDILVNNYGGTNVNLDKNLTAGDTDEFFRILKDNVQSVYLPAKAAIPHMEKVGGGSIVNISTIGSVVPDISRIAYCVSKSAINSLTQNIALQYARKNIRCNAVLPGLIGTRAALENMTDEFRDSFLGHVPLNRVGRPEDIANAVLYYASDDSGYVTGMIHEVAGGFALGTPQYSEYCPR",–,–,–,2 and 4
